For 4 substances, kcat/Kd of SPL activated by colipase (olive oil emulsion, 6 mM NaTDC) (S^-1 M^-1 10^-9), kcat/Kd of lipase activated by stingray colipase (olive oil emulsion, 6 mM NaTDC) (S^-1 M^-1 10^-9) and Kd results are on record in publication PMC3098174.

Like-named read-outs stand apart in the source and are kept apart here.

Experiment [1] deals with Stingray Pancreatic Lipase (Dasyatis pastinaca) (common stingray Dasyatis pastinaca).
Experiment [2] has the same target. The source holds these as a separate data set.
Experiment [3] has as its target chicken pancreatic lipase (chicken).
In experiment [4] the target is dromedary pancreatic lipase (dromedary).
Experiment [5] deals with turkey pancreatic lipase (turkey).
Experiment [6] has as its target Stingray Pancreatic Lipase (Dasyatis pastinaca) (common stingray Dasyatis pastinaca). Kind of experiment: lipase activity titration with colipase, Scatchard plot; apparent Kd from the slope of Scatchard plots; lipase (2.1 nM) with increasing amounts of colipase, emulsified olive oil as substrate, 6 mM NaTDC, pH 8.5, 37°C, pH-stat.
Experiment [7] shares this target. The description is as above. This is another data set of the same source.
Experiment [8] deals with chicken pancreatic lipase (chicken). The experiment is described as above.
In experiment [9] the target is dromedary pancreatic lipase (dromedary). The description is as above.
Experiment [10] has as its target turkey pancreatic lipase (turkey). The experiment is described as above.

Stingray Pancreatic Lipase (Dasyatis pastinaca) (common stingray Dasyatis pastinaca), sequence (A0A059TA26 entry or part of it): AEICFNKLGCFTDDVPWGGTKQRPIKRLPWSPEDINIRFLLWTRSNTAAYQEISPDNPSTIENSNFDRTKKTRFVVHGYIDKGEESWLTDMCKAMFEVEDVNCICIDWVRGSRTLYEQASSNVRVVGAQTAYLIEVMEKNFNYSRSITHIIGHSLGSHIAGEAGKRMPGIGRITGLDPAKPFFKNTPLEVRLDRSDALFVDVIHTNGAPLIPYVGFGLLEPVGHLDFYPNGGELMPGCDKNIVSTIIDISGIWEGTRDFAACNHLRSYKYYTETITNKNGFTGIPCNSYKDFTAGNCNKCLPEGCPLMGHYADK

With “stingray pancreatic colipase (Dasyatis pastinaca) (natural protein)”, the kcat/Kd of SPL activated by colipase (olive oil emulsion, 6 mM NaTDC) (S^-1 M^-1 10^-9) in experiment [1] came to 2070. In addition, the kcat/Kd of lipase activated by stingray colipase (olive oil emulsion, 6 mM NaTDC) (S^-1 M^-1 10^-9) in experiment [2] came to 2070; in experiment [3], 611; in [4] it was 930; in experiment [5], 946. The Kd in [6] is 1.2 nM; in experiment [7], 1.15 nM; in experiment [8] it was 4.5 nM; in [9], 3 nM; in [10], 2.9 nM.
Consider “dromedary pancreatic colipase (natural protein)”, for which the kcat/Kd of SPL activated by colipase (olive oil emulsion, 6 mM NaTDC) (S^-1 M^-1 10^-9) in [1] stood at 1140. Also, the Kd in [6] is 2.2 nM.
As for “turkey pancreatic colipase (natural protein)”, the kcat/Kd of SPL activated by colipase (olive oil emulsion, 6 mM NaTDC) (S^-1 M^-1 10^-9) in experiment [1] was determined as 599. The Kd in [6] is 3.6 nM.
With “chicken pancreatic colipase (natural protein)”, in [1], the kcat/Kd of SPL activated by colipase (olive oil emulsion, 6 mM NaTDC) (S^-1 M^-1 10^-9) is 576. Moreover, in experiment [6], the Kd turned out to be 3.9 nM.
